Experimental data reported in patent US20220056123A1, “USE OF IL-1BETA BINDING ANTIBODIES” (NOVARTIS AG, priority 2018, published 2022).

What was measured:
[1] = system: MDA-MB-231Luc2-TdTomato cells; assay: Spontaneous human breast cancer metastasis to human bone implants; assay type: in vivo, NOD SCID mice
Experimental: FIG. 4. Pharmacological blockade of IL-1B inhibits spontaneous metastasis to human bone in vivo. Female NOD-SCID mice bearing two 0.5 cm^3 pieces of human femoral bone received intra-mammary injections of MDA-MB-231Luc2-TdTomato cells. […] All animals were culled 35 days following tumour cell injection. Effects on bone metastases (a) were assessed in vivo and immediately post-mortem by luciferase imaging and confirmed ex vivo on histological sections. Data are shown as numbers of photons per second emitted 2 minutes following sub-cutaneous injection of D-luciferin. Effects on numbers of tumour cells detected in the circulation are shown in (b). *=P<0.01. **=P<0.001. ***=P<0.0001.
To model human breast cancer metastasis to human bone implants two human bone discs were implanted subcutaneously into 10-week old female NOD SCID mice (n=10/group) under isofluorane anaesthetic. Mice received an injection of 0.003 mg vetergesic and Septrin was added to the drinking water for 1 week following bone implantation. Mice were left for 4 weeks before injecting 1×10^5 MDA-MB-231 Luc2-TdTomato, MCF7 Luc2 or T47D Luc2 cells in 20% Martigel/79% PBS/1% toluene blue into the two hind mammary fat pads. Primary tumor growth and development of metastases was monitored weekly using an IVIS […] system (Caliper Life Sciences) following sub-cutaneous injection of 30 mg/ml D-luciferin (Invitrogen). On termination of experiments mammary tumors, circulating tumor cells, serum and bone metastases were resected. RNA was processed for downstream analysis by real time PCR, and cell lysates were taken for protein analysis and whole tissue for histology as previously described (Nutter et al., 2014; Ottewell et al., 2014a). […] Tumor cells, serum, and bone were subsequently resected for downstream analysis. Bone metastases were investigated following injection of 5×10^5 MDA-MB-231 GFP (control), MDA-MB-231-IV, MDA-MB-231-IL-1B-positive or MDA-MB-231-IL-1R1-positive cells into the lateral tail vein of 6 to 8-week old female BALB/c nude mice (n=12/group). Tumor growth in bones and lungs was monitored weekly by GFP imaging in live animals. Mice were culled 28 days after tumor cell injection at which timepoint hind limbs, lungs and serum were resected and processed for microcomputed tomography imaging (pCT), histology and ELISA analysis of bone turnover markers and circulating cytokines as described (Holen et al., 2016).
Whole blood was centrifuged at 10,000×g for 5 minutes and the serum removed for ELISA assays. The cell pellet was re-suspended in 5 ml of FSM lysis solution (Sigma-Aldrich, Pool, UK) to lyse red blood cells. Remaining cells were re-pelleted, washed 3× in PBS and re-suspended in a solution of PBS/10% FCS. Samples from 10 mice per group were pooled prior to isolation of TdTomato positive tumor cells using a MoFlow High performance cell sorter (Beckman Coulter, Cambridge UK) with the […] laser line from a Coherent I-90C tenable argon ion (Coherent, Santa Clara, Calif.). TdTomato fluorescence was detected by a 555LP dichroic long pass and a 580/30 nm band pass filter. Acquisition and analysis of cells was performed using Summit 4.3 software. After sorting, cells were immediately placed in RNA protect cell reagent (Ambion, Paisley, Renfrew, UK) and stored at −80° C. before RNA extraction. For counting numbers of circulating tumor cells, TdTomato fluorescence was detected using a 561 nm laser and an YL1-A filter (585/16 emission filter). Acquisition and analysis of cells was performed using Attune N×T software.

[2] = system: locally advanced or metastatic non-small cell lung cancer; parameters: species or system human; conditions: in vivo
Text: A Randomized, Double-Blind Phase III Study of Pembrolizumab+Platinum-based Chemotherapy with or without Canakinumab as First Line Therapy for Locally Advanced or Metastatic Non-squamous and Squamous Non-small Cell Lung Cancer Subjects The study population includes adult patients with first-line locally advanced stage IIIB (not eligible for definitive chemo-radiation therapy) or stage IV metastatic non-small cell lung cancer (NSCLC), without EGFR mutations or ALK translocation. Only patients who have not previously been treated with any systemic anti-cancer therapy are included, with the exception of neo-adjuvant or adjuvant therapy (if relapse has occurred more than 12 months from the end of that therapy). In addition, subjects should be without known B-RAF mutation or ROS-1 genetic aberrations.
The non-randomized safety run-in portion of the study will be done with canakinumab in combination with pembrolizumab and three platinum-based doublet chemotherapies: carboplatin+pemetrexed (patients with non-squamous tumors), cisplatin+pemetrexed (patients with non-squamous tumors), and carboplatin+paclitaxel (patients with either squamous or non-squamous tumor). Non-squamous tumor histology subjects who receive paclitaxel-carboplatin with pembrolizumab in the safety-run-in and achieve stable disease (SD) or better will receive pemetrexed maintenance after completing induction. […] The secondary objectives are to characterize safety and tolerability, pharmacokinetics, immunogenicity, and to assess the preliminary clinical anti-tumor activity. The analysis to determine the recommended phase III dose regimen (RP3R) will be conducted when at least 6 evaluable patients in each of the 3 treatment cohorts have been observed for dose limiting toxicity (DLT) for at least 42 days at the starting dose level to establish the RP3R.
At data cut-off, 6 patients (3 in A, 2 in B and 1 in C) of the 30 treated patients, discontinued the study treatment. The primary reason for treatment discontinuation was PD (3 patients in A and 1 patient each in B and C)

canakinumab: high-affinity, fully human monoclonal antibody of the IgG1/k to interleukin-1β
mice with metastasis detected in human bone implants ([1]; IL-1Ra 1 mg/kg daily, canakinumab sc every 14 days, from 7 days after tumor cell injection, control 7 out of 10): 1 out of 10 | size of bone metastases ([1]; luciferase imaging, vs control group): smaller than those detected in the control group | tumor cells counted in whole blood ([1]; placebo 108 tumor cells/ml): 3 tumor cells/ml | AEs leading to discontinuation of one of the study drugs [2]: 3 patients | AEs leading to dose interruption: decreased neutrophil count [2]: 3 patients | AEs leading to dose interruption: decreased white blood cell count [2]: 1 patient | AEs leading to dose interruption: neutropenia [2]: 1 patient | AEs leading to dose reduction: myalgia [2]: 1 patients | AEs leading to dose reduction: peripheral neuropathy [2]: 2 patients | Grade 5 adverse events [2]: No Grade 5 adverse events were observed | patients with dose limiting toxicity (DLT) [2]: 1 patient | patients with grade 3 AEs [2]: 13 patients | patients with grade 4 AE [2]: 1 patient
